In paper doi:10.1101/2024.10.12.618001, “High yield purification of an Isoleucine zipper modified CD95 Ligand with either biotin or DNA-oligomer binding domain for efficient Cell Apoptosis Induction” (bioRxiv, 2024):
Where “and” joins values, the source holds several entries; their conditions need not be identical. Identical values can stand only once.

T1: soluble CD95L (Enzo Life Sciences) (UniProt P48023 130-281)
T1 construct: soluble CD95 ligand (CD95L, Fas ligand); The conclusion calls it the unmodified CD95L; also called sCD95L; source: bought: Enzo Life Sciences
T1 sequence (looked up): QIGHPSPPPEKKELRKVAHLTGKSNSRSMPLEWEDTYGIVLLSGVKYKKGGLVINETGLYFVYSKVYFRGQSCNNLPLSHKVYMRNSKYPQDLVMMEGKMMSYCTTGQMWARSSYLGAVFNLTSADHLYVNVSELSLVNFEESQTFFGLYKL

B1: CD95L-IZ-His (His8-TEV-Cys-IZ-CD95L (137-281), secreted form) (ligand)
chain: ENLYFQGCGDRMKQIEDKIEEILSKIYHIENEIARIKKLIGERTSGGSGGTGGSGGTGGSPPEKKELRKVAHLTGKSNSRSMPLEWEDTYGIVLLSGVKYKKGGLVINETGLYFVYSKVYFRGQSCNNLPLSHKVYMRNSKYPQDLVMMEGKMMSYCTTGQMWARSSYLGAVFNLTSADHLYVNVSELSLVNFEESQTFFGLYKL
modifications: glycosylated (the paper suggests three to five N-glycans)
notes: TEV protease site ENLYFQ, extra cysteine, isoleucine zipper (IZ, variant of the GCN4 leucine zipper) and linker; CD95 ligand (CD95L, Fas ligand, CD178, TNFSF6), human, extracellular domain, amino acids 137-281; The natural CD95L part is fused to a designed trimerisation motif; also called CD95L-IZ with His-tag; CD95-IZ-His; source: HEK293T, transient transfection (PEI), secreted into the medium; …
B2: CD95-His receptor protein (Sino Biological) (receptor, UniProt P25445 26-173, looked up)
chain: QVTDINSKGLELRKTVTTVETQNLEGLHHDGQFCHKPCPPGERKARDCTVNGDEPDCVPCQEGKEYTDKAHFSSKCRRCRLCDEGHGLEVEINCTRTQNTKCRCKPNFFCNSTVCEHCDPCTKCEHGIIKECTLTSNTKCKEEGSRSN
notes: CD95 (Fas, Apo-1) receptor protein with His-tag; also called Fas; Apo-1; source: bought: Sino Biological
B3: CD95L-IZ-biotin (CD95L-IZ after His-tag cleavage, biotinylated at the extra cysteine) (ligand)
chain: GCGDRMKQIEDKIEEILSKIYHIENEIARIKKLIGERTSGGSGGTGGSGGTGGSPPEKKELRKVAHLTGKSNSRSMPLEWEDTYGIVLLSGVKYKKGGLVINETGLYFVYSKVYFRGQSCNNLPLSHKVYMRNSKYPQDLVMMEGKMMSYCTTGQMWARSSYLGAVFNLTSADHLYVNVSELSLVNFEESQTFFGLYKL
modifications: biotin (biotin-C5-maleimide) on the extra cysteine; glycosylated
notes: What is left after TEV cleavage: Gly, extra cysteine, isoleucine zipper (IZ) and linker; CD95 ligand (CD95L, Fas ligand, CD178, TNFSF6), human, extracellular domain, amino acids 137-281; also called CD95L-IZ-X; source: HEK293T, transient transfection, secreted; purified (anti-His-tag antibody agarose beads), His-tag cut with TEV protease, labelled with biotin-C5-maleimide; not shown: His8, …

Legend:
[1] = biological target: the molecule itself; experiment: SEC; Superdex 75 10/300 GL, PBS pH 7.4, 0.3 ml/min; 350 µl CD95L-IZ-His at 0.409 mg/ml; protein standard mix for sizes; curve fitted with three Gaussians
[2] = biological target: T1, soluble CD95L (Enzo Life Sciences); experiment: ELISA; CD95-His coated at 2 µg/ml in PBS overnight at 4 °C; ligand 0.1-100 nM in 0.5 % BSA/PBST, 2 h at r.t.; detected with anti-CD95L antibody and HRP secondary; 4-parameter logistic fit; conditions: both partners purified
[3] = biological target: B2; experiment: as above; conditions: both partners purified

Binder: B1
stoichiometry N [1]: 3 and 2

Binder: B2
Kd [2]: 11.3 nM

Binder: B3
Kd [3]: 0.68 nM
